Results taken from paper doi:10.1101/742957.
“And” between values parts separate entries of the source, which are not always exact repeats. Equal entries are not always repeated.

Target: Recombinant human transferrin (human) (UniProt P02787)
Assay: SEC-MALS

percent dimer: 12%
percent trimer: 2%
stoichiometry N: 2 and 3
Substance: Recombinant human transferrin (from UniProt P02787 20-698) (natural protein)
